Results on five molecules are retold here after patent publication US20200200749A1 (VANDERBILT UNIVERSITY, published 2020).

Test [1] deals with T1, EBOV sGP (EBOV (Ebola Zaire), UniProt P60170 33-324).
T1 sequence: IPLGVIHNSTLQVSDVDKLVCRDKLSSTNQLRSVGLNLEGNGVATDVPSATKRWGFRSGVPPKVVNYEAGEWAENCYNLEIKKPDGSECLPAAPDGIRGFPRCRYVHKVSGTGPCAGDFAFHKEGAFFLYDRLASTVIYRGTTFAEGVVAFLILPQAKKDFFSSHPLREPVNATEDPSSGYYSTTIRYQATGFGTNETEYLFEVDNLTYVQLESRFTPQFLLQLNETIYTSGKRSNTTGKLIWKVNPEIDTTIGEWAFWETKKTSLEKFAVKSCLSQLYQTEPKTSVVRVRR
Kind of test: ELISA, sGP coated on plate, mAb serially diluted. Background: An ELISA detects its analyte on a solid surface through an enzyme-linked reagent.

For test [2], the target named is T2, EBOV GP (recombinant, full-length extracellular domain) (EBOV (Ebola Zaire), UniProt Q05320 33-650).
T2 sequence: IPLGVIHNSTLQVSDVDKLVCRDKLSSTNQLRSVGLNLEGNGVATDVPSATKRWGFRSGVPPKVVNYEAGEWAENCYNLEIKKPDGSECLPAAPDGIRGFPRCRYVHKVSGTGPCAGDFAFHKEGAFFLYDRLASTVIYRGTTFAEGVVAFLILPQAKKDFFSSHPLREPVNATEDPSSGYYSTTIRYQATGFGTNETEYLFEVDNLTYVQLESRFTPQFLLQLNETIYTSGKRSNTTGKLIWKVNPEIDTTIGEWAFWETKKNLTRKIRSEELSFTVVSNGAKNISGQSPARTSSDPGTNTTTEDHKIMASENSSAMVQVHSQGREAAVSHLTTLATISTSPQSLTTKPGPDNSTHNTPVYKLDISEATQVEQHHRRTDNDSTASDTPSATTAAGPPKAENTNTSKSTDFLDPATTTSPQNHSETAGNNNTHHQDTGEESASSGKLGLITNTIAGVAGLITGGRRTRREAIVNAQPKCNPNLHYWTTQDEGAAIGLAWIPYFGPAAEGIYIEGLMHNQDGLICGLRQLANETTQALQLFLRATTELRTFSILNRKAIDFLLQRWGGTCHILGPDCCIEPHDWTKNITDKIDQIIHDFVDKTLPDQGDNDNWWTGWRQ
Nature of the test: ELISA, GP coated on plate, mAb serially diluted.

Test [3] concerns the target T3, SUDV GP (recombinant) (SUDV (Sudan ebolavirus), UniProt Q66814 33-650).
T3 sequence: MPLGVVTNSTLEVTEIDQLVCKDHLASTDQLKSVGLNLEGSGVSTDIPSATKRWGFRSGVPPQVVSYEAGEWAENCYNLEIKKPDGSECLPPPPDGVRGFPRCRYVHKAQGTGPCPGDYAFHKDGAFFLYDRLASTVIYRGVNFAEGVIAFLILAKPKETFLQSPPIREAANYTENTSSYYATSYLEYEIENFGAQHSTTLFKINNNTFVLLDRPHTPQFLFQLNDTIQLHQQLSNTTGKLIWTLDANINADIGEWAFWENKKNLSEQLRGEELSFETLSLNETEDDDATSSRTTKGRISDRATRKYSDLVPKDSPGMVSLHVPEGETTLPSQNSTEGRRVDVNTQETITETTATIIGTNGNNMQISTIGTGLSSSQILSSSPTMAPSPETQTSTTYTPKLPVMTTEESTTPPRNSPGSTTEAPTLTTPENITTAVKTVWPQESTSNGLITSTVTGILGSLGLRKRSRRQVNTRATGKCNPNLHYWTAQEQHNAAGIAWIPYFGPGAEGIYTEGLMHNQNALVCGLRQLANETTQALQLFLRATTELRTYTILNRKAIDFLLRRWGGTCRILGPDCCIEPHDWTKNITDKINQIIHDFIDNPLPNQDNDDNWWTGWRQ
Nature of the test: ELISA, GP coated on plate, mAb serially diluted.

B1: EBOV49 (antibody, V domains shown)
VH: EVQLVESGGGLVQPGGSLRLSCAASGFTFSSYEINWVRQAPGRGLEWVSYISSSGRTIYYADSVKGRFTISRDNAKNSLYLQMNSLRAEDTAVYYCAREPYVDGILYGAGDSYFDYWGQGTLVTVSS
VL: DIQMTQSPSSLSASVGDRVTITCRASQSISNYLNWYQQKPGKAPKVLIYAASSLQSGVSSRFSGSGSGTDFTLTISSLQPEDFATYFCQQSYNTPPVTFGQGTRLEIK
For orientation: EC50 means the midpoint of the concentration-response curve. For B1, the EC50 was 61 µg/mL in test [1] and 262 µg/mL in test [2].

B2: EBOV63 (antibody, V domains shown)
VH: EVQLVESGGGLVKPGGSLRLSCAASGFTLNFYNMNWVRQAPGKGLEWVSSISSSSNYIYYADSVKGRFTISRDNARKSLYLQMNSLRAEDTAVYYCARDFVQLLIPQRDEWQGVHDYYGMDVWGQGTLVTVSS
VL: EIVLTQSPGTLSLSPGGRATLSCRASQSVSNSYLAWYQQKPGQAPRLLIYGASSRATGIPDRFSGSGSGTDFILTISRLEPEDFAVYYCQHYGSSQLTFGGGTKVEIK
In the case of B2, the EC50 in test [1] came to 38 µg/mL; in test [2], 283 µg/mL.

B3: EBOV52 (antibody, V domains shown)
VH: QVQLQESGPGLVKPSETLSLNCTVSGGSISSYYWSWIRQPPGKGLEWIGYIYDSGRTKYNPSLKSRVTISLDTSKNQFSLKLSSVTAADTAVYYCASLGPFDKLWFGELLPGWFDPWGQGTLVTVSS
VL: EIVLTQSPATLSLSPGGRATLSCRASQSVHNYLAWYQQKSGQAPRLLIYDASNRATGIPARFSGSGSGTDFTLTISSLEPDDFAVYYCQHRSNWLTFGGGTKVEIK
Turning to B3, the EC50 was found to be 82 µg/mL in test [1] and 712 µg/mL in test [2].

B4: EBOV87 (antibody, V domains shown)
VH: QVQLVQSGAEVKRPGASVKVSCKASGYTFTSYAISWVRQAPGQGLEWMGWISGNNGNTNYAQKLQGRLTMTTDTSTSTAYMELRSLRSDDTAVYYCARDADIVVVVGATGTYYYGMDVWGQGTLVTVSS
VL: DIVMTQSPSTLSASVGDRVTITCRASQSISSWLAWYQQKPGKAPKLLIYDASSLESGVPSRFSGSGSGTEFTLTISSLQPDDFATYYCQQYKSSLRTFGQGTQLEIK
As for B4, the values for the EC50 in test [1], in test [2] and in test [3] were 51 µg/mL, 724 µg/mL and 629 µg/mL, respectively.

B5: EBOV62 (antibody, V domains shown)
VH: EVQLVESGGGLVQPGGSLRLSCAASGFTFSSYWMSWVRQAPGKGLEWVANIKQDGSAKYYVDSVKGRFTISRDNAKNSLYLQMNSLRAEDTAVYYCARDGLLGISDLLYPIYYFDYWGQGTLVTVSS
VL: DIVMTQSPSSLSASVGDRVTITCRASQNIGSYLNWYQQKPGKAPNLLMYAASSLQSGVPSRFSGSGSGTDFTLTITSLQPEDFATYYCQQSYSIPRTFGQGTQLEIK
In the case of B5, the results for the EC50 in test [1] and in test [2] were 51 µg/mL and 228 µg/mL, respectively.
